Test results published in patent US20250281632A1, “LGALS3BP ANTIBODY-DRUG-CONJUGATE AND ITS USE FOR THE TREATMENT OF CANCER” (MEDIAPHARMA S.R.L., priority 2018, published 2025).

What was measured:
[1] = test system: Neuroblastoma cell lines (SHSY5Y, Kelly and hNB); assay: MTT cell killing assay; type: cell-based, human; details: 72 hours, A375m melanoma cells as positive control (FIG. 19)
Description: Neuroblastoma cell lines (SHSY5Y, Kelly and hNB) and A375m melanoma cell line were plated and treated with increasing concentrations of SH-DM3 for 72 hours. The cell killing activity of the drug was evaluated by MTT assay.

[2] = target: T1, LGALS3BP at the membrane of human tumor cells (human, UniProt Q08380 19-585); assay: confocal immunofluorescence on MDA-MB-231, A375 and FADU cells, anti-human IgG-Alexa Fluor 488
T1 construct: whole, on cells; A secreted protein that stays close to the plasma membrane; It was detected by immunofluorescence on cells; also called Gal-3BP
T1 sequence (looked up): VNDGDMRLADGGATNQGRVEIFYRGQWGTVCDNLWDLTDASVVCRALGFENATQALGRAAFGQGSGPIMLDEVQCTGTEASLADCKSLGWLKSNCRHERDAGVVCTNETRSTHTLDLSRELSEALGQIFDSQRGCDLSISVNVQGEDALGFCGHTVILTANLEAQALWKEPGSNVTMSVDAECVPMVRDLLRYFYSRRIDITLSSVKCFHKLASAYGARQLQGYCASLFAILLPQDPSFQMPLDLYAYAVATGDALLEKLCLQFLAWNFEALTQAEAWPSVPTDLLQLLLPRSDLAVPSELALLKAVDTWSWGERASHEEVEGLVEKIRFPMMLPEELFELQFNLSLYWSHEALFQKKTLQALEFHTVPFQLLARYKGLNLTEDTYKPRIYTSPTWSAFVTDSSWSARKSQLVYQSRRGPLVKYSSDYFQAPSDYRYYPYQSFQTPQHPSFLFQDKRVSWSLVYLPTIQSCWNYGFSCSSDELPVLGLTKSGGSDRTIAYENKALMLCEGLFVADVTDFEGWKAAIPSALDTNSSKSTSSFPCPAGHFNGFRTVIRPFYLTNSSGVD
Description: Human tumor cells were grown on glass coverslips for 24 hours. […] At the end of incubation, cells were fixed in 4% paraformaldehyde for 15 minutes at room temperature, permeabilized with 0.25% Triton X-100 for 5 minutes, and blocked with 0.1% BSA for 1 hour at room temperature. Coverslips were then incubated with anti-human IgG-Alexa Fluor 488 conjugated. DRAQ5 was used to visualize nuclei. Images were acquired with a Zeiss LSM 510 meta-confocal microscopy using 488- and 633-nm lasers. [0142] […] [0143] A-B; MDA-MB-231 breast cancer; C-D, A375 melanoma; E-F, FADU, H&N cancer; G-H, HBF, normal bronchial fibroblasts.

[3] = target: T2, Human recombinant LGALS3BP (human, UniProt Q08380 19-585); assay: ELISA, plate-coated human recombinant LGALS3BP, anti-human IgG-HRP detection
T2 construct: also called 90K
T2 sequence (looked up): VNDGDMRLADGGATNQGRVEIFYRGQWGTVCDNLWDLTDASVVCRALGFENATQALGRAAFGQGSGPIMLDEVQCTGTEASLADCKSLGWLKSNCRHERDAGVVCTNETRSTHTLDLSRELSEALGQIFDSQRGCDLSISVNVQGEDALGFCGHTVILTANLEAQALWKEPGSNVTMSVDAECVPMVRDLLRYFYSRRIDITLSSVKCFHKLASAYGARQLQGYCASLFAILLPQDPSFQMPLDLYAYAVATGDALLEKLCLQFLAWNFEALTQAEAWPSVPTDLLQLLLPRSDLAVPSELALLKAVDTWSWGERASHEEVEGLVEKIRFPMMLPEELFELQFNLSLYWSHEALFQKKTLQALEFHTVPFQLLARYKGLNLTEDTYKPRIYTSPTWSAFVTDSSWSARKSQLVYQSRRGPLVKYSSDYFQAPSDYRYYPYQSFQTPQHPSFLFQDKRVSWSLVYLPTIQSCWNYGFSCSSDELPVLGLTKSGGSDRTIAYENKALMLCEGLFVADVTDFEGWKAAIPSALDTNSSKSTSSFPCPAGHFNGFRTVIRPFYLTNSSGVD
Description: Human recombinant LGALS3BP (2 μg/ml) was pre-coated overnight at 4° C. on 96 well-plates NUNC Maxisorp modules. […] After several washes with PBS-0, 1% Tween-20, anti-human IgG-HRP was added and incubated for 1 hour at room temperature. After washes, stabilized chromogen was added for at least 10 minutes in the dark, before stopping the reaction with the addition of 1 N H₂SO₄. The resulting color was read at 492 nm with an Elisa reader.

Molecule: COc1cc2cc(c1Cl)N(C)C(=O)C[C@H](OC(=O)C(C)N(C)C(=O)CCC(C)S)[C@]1(C)O[C@H]1[C@H](C)C1C[C@@](O)(NC(=O)O1)[C@H](OC)/C=C/C=C(\C)C2 (some centres unmarked) [SH DM3]
- cell killing activity [1]: potent cell killing activity

B1: Antibody 1959-sss (C220S-C226S-C229S) (antibody, V domains shown)
VH: QVQLQESGPGLVKPSETLSLTCAVSGYSISSGYYWTWIRQPPGKGLEWIGYITYDGKNNYSPSLKNRVTISVDTSKNQFSLKLSSVTAADTAVYYCAREGSSVITTGFTFWGQGTLVTVSS
VL: DIQMTQSPSTLSASVGDRVTITCSASSRVSYMYWYQQKPGKAPKLLIYLTSNLASGVPARFSGSGSGTEFTLTISSLQPDDFATYYCQQWTSHPPTFGQGTKVEVKR
notes: Humanized SP-2 on a human IgG framework, with the hinge cysteines 220, 226 and 229 changed to serine, so no interchain disulfides; Made in CHO cells
- binding result [2]: binds
- binding result [3]: binds

B2: 1959-sss-DM3 (antibody, V domains shown)
VH: QVQLQESGPGLVKPSETLSLTCAVSGYSISSGYYWTWIRQPPGKGLEWIGYITYDGKNNYSPSLKNRVTISVDTSKNQFSLKLSSVTAADTAVYYCAREGSSVITTGFTFWGQGTLVTVSS
VL: DIQMTQSPSTLSASVGDRVTITCSASSRVSYMYWYQQKPGKAPKLLIYLTSNLASGVPARFSGSGSGTEFTLTISSLQPDDFATYYCQQWTSHPPTFGQGTKVEVKR
modifications: maytansinoid DM3 joined by a disulfide bond to a cysteine of the light chain (DAR 2; light chain mass 24053 Da against 23261 Da reduced); residue number not given
notes: also called Ab1959-SSS-DM3
- binding result [2]: binds
- binding result [3]: binds
